Test [1] addresses T1, RARγ-V5/RXRα heterodimer (Homo sapiens, UniProt P13631). The experiment in a line: DNA modified immunoprecipitation, co-repressor N-CoR recruitment (Example 6). The test is classed as biochemical. The settings on record: ligand 1 μM.
Description: Immunoprecipitation with mouse anti-V5 antibody and Western analysis were conducted as set forth above.
The target of test [2] is T2, RARα-V5/RXRγ/DR-5 ternary complex (Homo sapiens, UniProt P10276).
T2 construct: the nuclear receptor subunits used in the invention are full length nuclear receptor monomer subunits; expressed in transfected cells; host or cells: CV-1 (green monkey kidney), whole-cell lysate
T2 sequence (P10276 1-462): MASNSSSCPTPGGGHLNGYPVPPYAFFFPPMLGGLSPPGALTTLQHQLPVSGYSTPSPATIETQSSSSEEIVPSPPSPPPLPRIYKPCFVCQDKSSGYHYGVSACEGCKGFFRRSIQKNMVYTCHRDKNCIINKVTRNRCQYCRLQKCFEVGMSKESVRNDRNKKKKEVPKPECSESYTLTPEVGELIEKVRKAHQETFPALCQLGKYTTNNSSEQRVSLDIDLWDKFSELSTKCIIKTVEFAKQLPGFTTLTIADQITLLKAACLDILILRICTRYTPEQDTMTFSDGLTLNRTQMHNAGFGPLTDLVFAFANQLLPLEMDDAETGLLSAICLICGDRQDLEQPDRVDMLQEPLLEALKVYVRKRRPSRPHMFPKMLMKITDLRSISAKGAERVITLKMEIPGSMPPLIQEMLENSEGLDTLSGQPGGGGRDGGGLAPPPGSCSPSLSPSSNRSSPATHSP
T2 sequence (P28705 1-463 partner): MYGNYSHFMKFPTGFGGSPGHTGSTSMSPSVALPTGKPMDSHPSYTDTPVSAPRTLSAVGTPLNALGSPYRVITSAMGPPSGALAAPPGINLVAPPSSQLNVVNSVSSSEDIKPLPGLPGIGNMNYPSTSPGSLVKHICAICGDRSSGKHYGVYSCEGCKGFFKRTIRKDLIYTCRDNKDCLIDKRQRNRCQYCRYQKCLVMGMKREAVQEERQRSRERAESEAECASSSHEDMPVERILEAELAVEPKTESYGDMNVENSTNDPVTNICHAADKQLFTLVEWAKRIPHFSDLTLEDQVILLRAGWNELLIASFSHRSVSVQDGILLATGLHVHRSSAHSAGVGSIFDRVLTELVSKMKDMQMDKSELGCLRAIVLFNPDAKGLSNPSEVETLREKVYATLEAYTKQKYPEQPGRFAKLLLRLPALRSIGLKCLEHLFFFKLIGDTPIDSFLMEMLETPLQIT
The experiment in a line: LXD peptide competition of ATRA-induced co-activator recruitment (Example 7, FIG. 8A). In kind it is biochemical. The settings on record: DR-5 RARE; for effect of peptide on ATRA-induced recruitment of SRC-1: SRC-1 peptides at 40 μl (so in the source); for effect of peptide on ATRA-induced recruitment of ACTR: ACTR peptides at 20 μl (so in the source). The text has this:
(§1) Nolte, R. T. et al., Nature 395:137-143 (1998). We addressed the importance of each of the three LXDs in mediating co-activator-receptor interaction using synthetic peptides comprising the LXD1, LXD2 or LXD3 amino acid sequences as competitors with SRC-1 in the DNA modified immunoprecipitation methods of the present invention. These peptides have the following amino acid sequences (with the characteristic LXXLL motif shown in bold):
(§2) Transfection, DR-5 oligonucleotide treatment, ligand treatment, immunoprecipitation and detection of associated co-factors were performed essentially as shown in the previous Examples. CV-1 cells were transfected with plasmids expressing either RARα/RXRγ-V5 or with RARγ/RXRα-V5. Synthetic LXD peptides were added to the cell lysate before the addition of retinoids at a concentration of 20 (ACTR) and 40 (SRC-1) […].

Test [3] deals with T3, RARγ/RXRα heterodimer (Homo sapiens, UniProt P13631).
T3 sequence (P13631 1-454): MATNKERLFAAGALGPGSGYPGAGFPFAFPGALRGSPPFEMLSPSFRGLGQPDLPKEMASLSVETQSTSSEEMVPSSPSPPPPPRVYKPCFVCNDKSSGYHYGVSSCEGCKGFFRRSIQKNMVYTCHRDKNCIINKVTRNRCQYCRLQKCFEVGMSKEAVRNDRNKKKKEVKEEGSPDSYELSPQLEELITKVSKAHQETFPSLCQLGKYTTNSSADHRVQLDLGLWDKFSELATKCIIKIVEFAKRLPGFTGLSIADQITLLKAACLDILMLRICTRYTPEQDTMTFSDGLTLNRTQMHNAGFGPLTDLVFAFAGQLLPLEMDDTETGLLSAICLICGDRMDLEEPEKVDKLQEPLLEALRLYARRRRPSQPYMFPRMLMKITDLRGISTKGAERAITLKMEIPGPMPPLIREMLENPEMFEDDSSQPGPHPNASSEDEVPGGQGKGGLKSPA
T3 sequence (P19793 1-462 partner): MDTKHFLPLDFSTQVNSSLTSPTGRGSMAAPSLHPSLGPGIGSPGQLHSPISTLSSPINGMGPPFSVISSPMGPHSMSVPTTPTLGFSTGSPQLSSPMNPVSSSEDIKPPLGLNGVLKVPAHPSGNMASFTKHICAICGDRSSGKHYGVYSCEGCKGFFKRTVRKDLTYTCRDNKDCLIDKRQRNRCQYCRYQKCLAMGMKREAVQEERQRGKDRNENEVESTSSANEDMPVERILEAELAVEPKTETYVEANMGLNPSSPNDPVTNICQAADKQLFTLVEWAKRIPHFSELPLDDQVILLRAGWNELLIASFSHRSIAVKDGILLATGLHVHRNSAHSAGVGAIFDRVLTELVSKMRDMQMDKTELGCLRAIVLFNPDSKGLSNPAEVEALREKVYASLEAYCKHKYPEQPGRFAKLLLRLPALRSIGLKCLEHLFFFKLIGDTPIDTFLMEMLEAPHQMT
The experiment in a line: LXD peptide competition of ATRA-induced co-activator recruitment (Example 7, FIG. 8B). In kind it is biochemical. The settings on record: DR-5 RARE, compared with the RARα/RXRγ experiment.
Description: as §1, §2

In test [4] the target is RARα/RXR heterodimer bound to a DR-5 retinoic acid receptor response element (Example 9) (human) (UniProt P10276). The test is described as follows: DNA dependent co-IP with DR-5 RARE, Western anti-ACTR; 1 uM ligand AGN196412.
For test [5], the target named is RARβ-V5/RXRα heterodimer (human) (UniProt P10826). The experiment in a line: anti-V5 co-IP from CV-1 lysate, Western anti-SRC-1; 1 uM AGN 194204 with DR-5 RARE against 1 uM TTNPB.
Test [6] deals with RARα/RXR heterodimer bound to a DR-5 retinoic acid receptor response element (Example 9) (human) (UniProt P10276). The test is described as follows: DNA dependent co-IP with DR-5 RARE, Western anti-SRC-1; 1 uM ligand AGN194794, 196382 or 196412 (which ligand gives which end is not told).
Test [7] shares this target. The experiment in a line: DNA dependent co-IP with DR-5 RARE, Western anti-SRC-1; 1 uM ligand AGN194365.
Test [8] concerns the target T1, RARγ-V5/RXRα heterodimer. The experiment in a line: anti-V5 co-IP from CV-1 lysate, Western anti-N-CoR; DR-5 RARE, 1 uM ligand.

Chain of RARβ-V5/RXRα heterodimer (human) (P10826 other isoform, or with tags, fused parts or gaps): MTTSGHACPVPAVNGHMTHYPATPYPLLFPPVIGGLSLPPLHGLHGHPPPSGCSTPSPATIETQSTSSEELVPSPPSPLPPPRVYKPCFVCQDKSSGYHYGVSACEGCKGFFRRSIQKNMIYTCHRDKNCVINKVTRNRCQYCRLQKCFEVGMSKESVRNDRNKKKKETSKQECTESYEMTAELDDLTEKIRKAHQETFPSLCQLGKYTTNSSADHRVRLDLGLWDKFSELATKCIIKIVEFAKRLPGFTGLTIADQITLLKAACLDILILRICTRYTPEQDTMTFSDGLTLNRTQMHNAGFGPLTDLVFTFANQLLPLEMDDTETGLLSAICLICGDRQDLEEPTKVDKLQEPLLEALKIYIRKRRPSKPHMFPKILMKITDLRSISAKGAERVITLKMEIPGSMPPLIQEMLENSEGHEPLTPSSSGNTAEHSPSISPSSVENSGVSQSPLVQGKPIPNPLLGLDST

`Cc1ccc(C2CCC(C)(C)c3ccc(C#Cc4ccc(C(=O)O)cc4)cc32)cc1` (centres unmarked) [AGN 193109]: the “N-CoR recruitment compared to AGN 193840” value in test [1] (with DR-5 RARE) is given as “approximately two-fold increase”. Also, the N-CoR recruitment result is “led to N-COR recruitment” in test [1] (with DR-5 RARE 0.5 μg/ml) and “failed to result in the detection of co-repressor” in test [1] (with G-5-G DNA element instead of DR-5 RARE). Regarding `CC1(C)CCC(c2ccc(F)cc2)c2cc(C#Cc3ccc(C(=O)O)cc3)ccc21` (centres unmarked) [AGN 193840], the N-CoR recruitment result in test [1] (with DR-5 RARE 0.5 μg/ml) is reported as “led to N-COR recruitment”. Turning to “KESKDHQLLRYLLDKDEKDLRS (Nuclear co-activator LXD-containing peptide) [SRC-1 LXD3]”, in test [2], the “effect of peptide on ATRA-induced recruitment of SRC-1” value is on record as “completely abolished”. As to “KYSQTSHKLVQLLTTTAEQQLR (Nuclear co-activator LXD-containing peptide) [SRC-1 LXD1]”, the “amount of SRC-1 associated in the presence of peptide” value in test [3] was “somewhat greater”. In test [2], the “effect of peptide on ATRA-induced recruitment of SRC-1” value was “no effect”. In the case of “LESKGHKKLLQLLTCSSDDRGH (Nuclear co-activator LXD-containing peptide) [ACTR LXD1]”, in test [2], the “effect of peptide on ATRA-induced recruitment of ACTR” value is listed as “abolished”. On the same count and under the same terms, to “LLQEKHRTLHKLLQNGNSPAEV (LLQEKHRILHKLLQNGNSPAEV; Nuclear co-activator LXD-containing peptide) [ACTR LXD2]” belongs “abolished”. On to “nuclear receptor co-activator ACTR (other; other documents disagree on this pair)”, for which the % recruitment relative to TTNPB in test [4] is 65%.

On to “nuclear receptor co-activator SRC-1, endogenously expressed by CV-1 cells”, for which the amount of SRC-1 detected compared to treatment with TTNPB in test [5] was determined as 30%. Take “nuclear receptor co-activator SRC-1, endogenously expressed by CV-1 cells (other; other documents disagree on this pair)”: in test [6], the % recruitment relative to TTNPB was in the range of 23 to 32%. Also, in test [7], the % recruitment compared to TTNPB is 65%. With nuclear receptor co-repressor N-CoR, the fold increase in N-CoR recruitment with AGN 193109 compared to AGN 193840 in test [8] was 2 fold.

The record behind these values is US20020037514A1, “Identification of nuclear receptor-dependent coregulator recruitment” (priority 2000, published 2002).
